Data on four proteins can be found in patent US20040106569.

Marks after values point to notes of the source that are not given here.

The target of series [1] is GST-GSK3 fusion protein (Cell Signaling Technology).

B1: full length PKNbeta KE588 mutant (protein)
chain: MEEGAPRQPGPSQWPPEDEKEVIRRAIQKELKIKEGVENLRRVATDRRHLGHVQQLLRSSNRRLEQLHGELRELHARILLPGPGPGPAEPVASGPRPWAEQLRARHLEALRRQLHVELKVKQGAENMTHTCASGTPKERKLLAAAQQMLRDSQLKVALLRMKISSLEASGSPEPGPELLAEELQHRLHVEAAVAEGAKNVVKLLSSRRTQDRKALAEAQAQLQESSQKLDLLRLALEQLLEQLPPAHPLRSRVTRELRAAVPGYPQPSGTPVKPTALTGTLQVRLLGCEQLLTAVPGRSPAAALASSPSEGWLRTKAKHQRGRGELASEVLAVLKVDNRVVGQTGWGQVAEQSWDQTFVIPLERARELEIGVHWRDWRQLCGVAFLRLEDFLDNACHQLSLSLVPQGLLFAQVTFCDPVIERRPRLQRQERIFSKRRGQDFLRRSQMNLGMAAWGRLVMNLLPPCSSPSTISPPKGCPRTPTTLREASDPATPSNFLPKKTPLGEEMTPPPKPPRLYLPQEPTSEETPRTKRPHMEPRTRRGPSPPASPTRKPPRLQDFRCLAVLGRGHFGKVLLVQFKGTGKYYAIEALKKQEVLSRDEIESLYCEKRILEAVGCTGHPFLLSLLVCFQTSSHARFVTEFVPGGDLMMQIHEDVFPEPQARFYVACVVLGLQFLHEKKIIYRDLKLDNLLLDAQGFLKIADFGLCKEGIGFGDRTSTFCGTPEFLAPEVLTQEAYTQAVDWWALGVLLYEMLVGECPFPGDTEEEVFDCIVNMDAPYPGFLSVQGLEFIQKLLQKCPEKRLGAGEQDAEEIKVQPFFRTTNWQALLARTIQPPFVPTLCGPADLRYFEGEFTGLPPALTPPAPHSLLTARQQAAFRDFDFVSERFLEP
Take B1: the “non-radioactive in vitro kinase assay (FIG. 11A)” value in series [1] was “no (FIG. 11A) or background activity of unspecific kinases (FIG. 11B) were detected with the full length KE and full length TA mutatant proteinss”. Further, the “radioactive in vitro kinase assay, 32P incorporation by autoradiography (FIG. 11B)” value (“radioactive in vitro kinase assay … (FIG. 11B)” for short) with myelin basic protein is “background activity of unspecific kinases (FIG. 11B)”.

B2: full length PKNbeta with the TA mutation at amino acid 718 (protein)
chain: MEEGAPRQPGPSQWPPEDEKEVIRRAIQKELKIKEGVENLRRVATDRRHLGHVQQLLRSSNRRLEQLHGELRELHARILLPGPGPGPAEPVASGPRPWAEQLRARHLEALRRQLHVELKVKQGAENMTHTCASGTPKERKLLAAAQQMLRDSQLKVALLRMKISSLEASGSPEPGPELLAEELQHRLHVEAAVAEGAKNVVKLLSSRRTQDRKALAEAQAQLQESSQKLDLLRLALEQLLEQLPPAHPLRSRVTRELRAAVPGYPQPSGTPVKPTALTGTLQVRLLGCEQLLTAVPGRSPAAALASSPSEGWLRTKAKHQRGRGELASEVLAVLKVDNRVVGQTGWGQVAEQSWDQTFVIPLERARELEIGVHWRDWRQLCGVAFLRLEDFLDNACHQLSLSLVPQGLLFAQVTFCDPVIERRPRLQRQERIFSKRRGQDFLRRSQMNLGMAAWGRLVMNLLPPCSSPSTISPPKGCPRTPTTLREASDPATPSNFLPKKTPLGEEMTPPPKPPRLYLPQEPTSEETPRTKRPHMEPRTRRGPSPPASPTRKPPRLQDFRCLAVLGRGHFGKVLLVQFKGTGKYYAIKALKKQEVLSRDEIESLYCEKRILEAVGCTGHPFLLSLLVCFQTSSHARFVTEFVPGGDLMMQIHEDVFPEPQARFYVACVVLGLQFLHEKKIIYRDLKLDNLLLDAQGFLKIADFGLCKEGIGFGDRTSAFCGTPEFLAPEVLTQEAYTQAVDWWALGVLLYEMLVGECPFPGDTEEEVFDCIVNMDAPYPGFLSVQGLEFIQKLLQKCPEKRLGAGEQDAEEIKVQPFFRTTNWQALLARTIQPPFVPTLCGPADLRYFEGEFTGLPPALTPPAPHSLLTARQQAAFRDFDFVSERFLEP
For B2, the “non-radioactive in vitro kinase assay (FIG. 11A)” value in series [1] was “no (FIG. 11A) or background activity of unspecific kinases (FIG. 11B) were detected with the full length KE and full length TA mutatant proteinss”. Also, in the series with myelin basic protein, the “radioactive in vitro kinase assay … (FIG. 11B)” value was “background activity of unspecific kinases (FIG. 11B)”.

B3: full length wildtype PKNbeta molecule (889 amino acids) (protein)
chain: MEEGAPRQPGPSQWPPEDEKEVIRRAIQKELKIKEGVENLRRVATDRRHLGHVQQLLRSSNRRLEQLHGELRELHARILLPGPGPGPAEPVASGPRPWAEQLRARHLEALRRQLHVELKVKQGAENMTHTCASGTPKERKLLAAAQQMLRDSQLKVALLRMKISSLEASGSPEPGPELLAEELQHRLHVEAAVAEGAKNVVKLLSSRRTQDRKALAEAQAQLQESSQKLDLLRLALEQLLEQLPPAHPLRSRVTRELRAAVPGYPQPSGTPVKPTALTGTLQVRLLGCEQLLTAVPGRSPAAALASSPSEGWLRTKAKHQRGRGELASEVLAVLKVDNRVVGQTGWGQVAEQSWDQTFVIPLERARELEIGVHWRDWRQLCGVAFLRLEDFLDNACHQLSLSLVPQGLLFAQVTFCDPVIERRPRLQRQERIFSKRRGQDFLRRSQMNLGMAAWGRLVMNLLPPCSSPSTISPPKGCPRTPTTLREASDPATPSNFLPKKTPLGEEMTPPPKPPRLYLPQEPTSEETPRTKRPHMEPRTRRGPSPPASPTRKPPRLQDFRCLAVLGRGHFGKVLLVQFKGTGKYYAIKALKKQEVLSRDEIESLYCEKRILEAVGCTGHPFLLSLLVCFQTSSHARFVTEFVPGGDLMMQIHEDVFPEPQARFYVACVVLGLQFLHEKKIIYRDLKLDNLLLDAQGFLKIADFGLCKEGIGFGDRTSTFCGTPEFLAPEVLTQEAYTQAVDWWALGVLLYEMLVGECPFPGDTEEEVFDCIVNMDAPYPGFLSVQGLEFIQKLLQKCPEKRLGAGEQDAEEIKVQPFFRTTNWQALLARTIQPPFVPTLCGPADLRYFEGEFTGLPPALTPPAPHSLLTARQQAAFRDFDFVSERFLEP
On to B3, for which the “non-radioactive in vitro kinase assay, phosphorylated substrate detected by Western blot” value in series [1] is “Only the full length wildtype protein kinase N beta or the kinase domain as defined in example 9 were suitable to phosphorylate the substrate”. Moreover, in the series with myelin basic protein, the “Activity (phosphorylation of MPB)” value is given as “++*” and the “radioactive in vitro kinase assay … (FIG. 11B)” value is given as “the full length wildtype protein kinase N beta as well as the kinase domain show activity”.

B4: PKNbeta deltaN comprising amino acids 288-889 (protein)
chain: CEQLLTAVPGRSPAAALASSPSEGWLRTKAKHQRGRGELASEVLAVLKVDNRVVGQTGWGQVAEQSWDQTFVIPLERARELEIGVHWRDWRQLCGVAFLRLEDFLDNACHQLSLSLVPQGLLFAQVTFCDPVIERRPRLQRQERIFSKRRGQDFLRRSQMNLGMAAWGRLVMNLLPPCSSPSTISPPKGCPRTPTTLREASDPATPSNFLPKKTPLGEEMTPPPKPPRLYLPQEPTSEETPRTKRPHMEPRTRRGPSPPASPTRKPPRLQDFRCLAVLGRGHFGKVLLVQFKGTGKYYAIKALKKQEVLSRDEIESLYCEKRILEAVGCTGHPFLLSLLVCFQTSSHARFVTEFVPGGDLMMQIHEDVFPEPQARFYVACVVLGLQFLHEKKIIYRDLKLDNLLLDAQGFLKIADFGLCKEGIGFGDRTSTFCGTPEFLAPEVLTQEAYTQAVDWWALGVLLYEMLVGECPFPGDTEEEVFDCIVNMDAPYPGFLSVQGLEFIQKLLQKCPEKRLGAGEQDAEEIKVQPFFRTTNWQALLARTIQPPFVPTLCGPADLRYFEGEFTGLPPALTPPAPHSLLTARQQAAFRDFDFVSERFLEP
On to B4, for which, in the series with myelin basic protein, the “Activity (phosphorylation of MPB)” value is given as “-*”.
